Values quoted from earlier work, collected in paper PMC10561060.

Molecular target: chemoreceptor C-terminal pentapeptide (Escherichia coli)
Assay: ITC

Row | Substance | Kd [µM]
1 | CheR (from UniProt P07364) | 2
2 | CheB (from UniProt P07330) | 160
